{"source": "paper PMC9637222", "about": "(Nature Communications, 2022)", "binders": {"B1": {"name": "SicA (tag-free, purified) (natural protein)", "chain": "MDYQNNVSEERVAEMIWDAVSEGATLKDVHGIPQDMMDGLYAHAYEFYNQGRLDEAETFFRFLCIYDFYNPDYTMGLAAVCQLKKQFQKACDLYAVAFTLLKNDYRPVFFTGQCQLLMRKAAKARQCFELVNERTEDESLRAKALVYLEALKTAETEQHSEQEKE", "notes": "also called wild-type SicA"}}, "molecular_target": "T1, InvF (tag-free, purified) (S. Typhimurium, UniProt P69343 1-216)", "T1 sequence": "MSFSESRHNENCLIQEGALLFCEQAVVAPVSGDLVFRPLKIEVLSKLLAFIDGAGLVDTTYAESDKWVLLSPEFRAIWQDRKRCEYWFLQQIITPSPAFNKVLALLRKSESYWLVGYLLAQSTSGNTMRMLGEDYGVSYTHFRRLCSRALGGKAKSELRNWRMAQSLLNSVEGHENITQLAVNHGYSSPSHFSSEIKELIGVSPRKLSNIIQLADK", "experiment": "ITC", "conditions": "both partners purified"}
{"binder": "B1", "values": [{"measurement": "binding result", "value": "binds"}]}
